From patent publication US20240417469A1 (CONCEPT TO MEDICINE BIOTECH, published 2024) come the findings set out here.

The target in assay [1] is T1, recombinant CD3D&E protein (human CD3-his tag) (human, UniProt P04234 22-105; P07766 23-126, limits assumed).
T1 construct: Analyte in Biacore; also called CD3D&E-His; CD3d&ε-His
Nature of the assay: SPR Biacore, Ab captured on Protein A.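 Note: humanized antibodies on a Protein A chip, human CD3-his analyte flowed over in serial dilutions for 3 min, dissociation tracked 120–360 s on a Biacore T200.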

In assay [2] the target is human CD3 on cells (human PBMC; Jurkat TCR/CD3 NFAT reporter cells) (human, UniProt P07766 23-207; P04234 22-171; P09693 23-182). Nature of the assay: cell-based or functional assay.
A further assay deals with T2, human CD3 protein (human, UniProt P07766 23-126; P04234 22-105).
T2 construct: ELISA coating protein; also called Human CD3D & CD3E Heterodimer Protein
Nature of the assay: ELISA, plate-coated CD3.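 Note: binding to plate-immobilized human CD3 protein, bound antibody detected with peroxidase-labelled anti-human IgG and TMB, read as absorbance at 450 nm.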

T1 sequence (P04234 22-105 limits assumed, chain 1 of 2): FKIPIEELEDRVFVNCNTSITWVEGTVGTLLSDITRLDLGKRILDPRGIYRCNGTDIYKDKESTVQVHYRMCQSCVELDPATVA
T1 sequence (P07766 23-126 limits assumed, chain 2 of 2): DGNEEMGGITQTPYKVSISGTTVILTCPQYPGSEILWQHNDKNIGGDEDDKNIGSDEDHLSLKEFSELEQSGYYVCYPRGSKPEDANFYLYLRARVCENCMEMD
human CD3 on cells (human PBMC; Jurkat TCR/CD3 NFAT reporter cells), sequence (P07766 23-207, chain 1 of 3): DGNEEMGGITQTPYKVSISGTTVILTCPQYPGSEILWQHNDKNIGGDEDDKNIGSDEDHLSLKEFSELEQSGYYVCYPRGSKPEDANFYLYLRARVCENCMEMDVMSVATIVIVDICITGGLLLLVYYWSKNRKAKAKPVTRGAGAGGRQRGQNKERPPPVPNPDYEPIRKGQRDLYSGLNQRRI
human CD3 on cells (human PBMC; Jurkat TCR/CD3 NFAT reporter cells), sequence (P04234 22-171, chain 2 of 3): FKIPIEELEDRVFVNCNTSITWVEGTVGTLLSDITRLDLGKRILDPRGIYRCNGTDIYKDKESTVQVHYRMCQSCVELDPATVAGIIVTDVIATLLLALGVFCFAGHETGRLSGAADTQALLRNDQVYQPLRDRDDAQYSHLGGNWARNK
human CD3 on cells (human PBMC; Jurkat TCR/CD3 NFAT reporter cells), sequence (P09693 23-182, chain 3 of 3): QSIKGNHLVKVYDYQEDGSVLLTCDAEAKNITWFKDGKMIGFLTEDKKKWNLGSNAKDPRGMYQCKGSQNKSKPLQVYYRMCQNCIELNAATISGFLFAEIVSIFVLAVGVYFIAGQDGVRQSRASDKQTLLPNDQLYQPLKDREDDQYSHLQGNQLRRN
T2 sequence (P07766 23-126 limits assumed, chain 1 of 2): as the sequence (P07766 23-126 limits assumed, chain 2 of 2) above
T2 sequence (P04234 22-105 limits assumed, chain 2 of 2): as the sequence (P04234 22-105 limits assumed, chain 1 of 2) above

B1: Hu192A7B9-7 (antibody, V domains shown)
VH: EVQLQESGPGLVKPSETLSLTCTVSGGSISSYNVHWIRQPPGKGLEWIGRMRYNGDTSYNSALKSRVTISVDTSKNQFSLKLSSVTAADTAVYYCARGPRGGYYSALFDYWGQGTMVTVSS
VL: DIQMTQSPSSLSASVGDRVTITCKASQNINRYLNWYQQKPGKAPKLLISIANSLQTGVPSRFSGSGSGTDFTLTISSLQPEDFATYYCLQHNSWYTFGQGTKLEIK
notes: humanized mAb
By Kd is commonly meant the constant that tells how readily two partners part at equilibrium. For orientation: koff means the rate constant with which the complex falls apart. Usually kon stands for the second-order rate constant of association. Broadly, the EC50 is the concentration that produces a half-maximal response. A low value points to greater potency. For the molecule B1, in assay [1], the equilibrium dissociation constant (Kd) is 79.6 nM, the koff was 0.0151 s⁻¹ and the kon came out at 190000 M⁻¹ s⁻¹. The “CD3-NFAT Activity by CD3 mAb” value in assay [2] was at most 50 % SP34. In the assay with human CD3 protein, a half-maximal response (EC50) required 22.6 ng/mL.

B2: Hu192A7B9-18 (antibody, V domains shown)
VH: EVQLQESGPGLVKPSETLSLTCTVSGFSLTSYNVHWVRQPPGKGLEWMGRMRYNGDTSYNSALKSRLTISRDTSKNQVSLKLSSVTAADTAVYYCTRGPRGGYYSALFDYWGQGTMVTVSS
VL: DIQMTQSPSSLSASVGDRVTITCKASQNINRYLNWYQQKPGKAPKLLISIANSLQTGIPSRFSGSGSGTDFTLTISSLQPEDFATYYCLQHNSWYTFGQGTKLEIK
notes: humanized mAb
Regarding B2, in assay [1], the Kd came out at 56 nM, the koff came to 0.00317 s⁻¹ and the kon stood at 56500 M⁻¹ s⁻¹. Moreover, in assay [2], the “CD3-NFAT Activity by CD3 mAb” value was over 50 % SP34. The midpoint of the response with human CD3 protein, the EC50, lay at 8.83 ng/mL.

B3: Hu192A7B9-8 (antibody, V domains shown)
VH: EVQLQESGPGLVKPSETLSLTCTVSGGSISSYNVHWVRQPPGKGLEWIGRMRYNGDTSYNSALKSRVTISRDTSKNQFSLKLSSVTAADTAVYYCARGPRGGYYSALFDYWGQGTMVTVSS
VL: DIQMTQSPSSLSASVGDRVTITCKASQNINRYLNWYQQKPGKAPKLLISIANSLQTGVPSRFSGSGSGTDFTLTISSLQPEDFATYYCLQHNSWYTFGQGTKLEIK
notes: humanized mAb
Turning to B3, in assay [1], the Kd is 58.9 nM, the koff came to 0.0475 s⁻¹ and the kon is 805000 M⁻¹ s⁻¹. In addition, the “CD3-NFAT Activity by CD3 mAb” value in assay [2] was over 50 % SP34. The molecule also had an EC50 with human CD3 protein of 6.42 ng/mL.

B4: Hu192A7B9-11 (antibody, V domains shown)
VH: EVQLQESGPGLVKPSETLSLTCTVSGFSISSYNVHWVRQPPGKGLEWMGRMRYNGDTSYNSALKSRLTISRDTSKNQVSLKLSSVTAADTAVYYCTRGPRGGYYSALFDYWGQGTMVTVSS
VL: DIQMTQSPSSLSASVGDRVTITCKASQNINRYLNWYQQKPGKAPKLLISIANSLQTGVPSRFSGSGSGTDFTLTISSLQPEDFATYYCLQHNSWYTFGQGTKLEIK
notes: humanized mAb
For B4, in assay [1], the Kd amounted to 77.7 nM, the koff is 0.00449 s⁻¹ and the kon was determined as 57800 M⁻¹ s⁻¹. For the same molecule, the “CD3-NFAT Activity by CD3 mAb” value in assay [2] is over 50 % SP34. In the assay with human CD3 protein, this molecule registered an EC50 of 7.95 ng/mL.

B5: Hu192A7B9-14 (antibody, V domains shown)
VH: EVQLQESGPGLVKPSETLSLTCTVSGGSISSYNVHWVRQPPGKGLEWIGRMRYNGDTSYNSALKSRVTISRDTSKNQFSLKLSSVTAADTAVYYCARGPRGGYYSALFDYWGQGTMVTVSS
VL: DIQMTQSPSSLSASVGDRVTITCKASQNINRYLNWYQQKPGKAPKLLISIANSLQTGIPSRFSGSGSGTDFTLTISSLQPEDFATYYCLQHNSWYTFGQGTKLEIK
notes: humanized mAb
As for B5, in assay [1], the Kd is 86.7 nM, the koff is 0.0179 s⁻¹ and the kon was determined as 206000 M⁻¹ s⁻¹. The “CD3-NFAT Activity by CD3 mAb” value in assay [2] is over 50 % SP34. Moreover, the EC50 with human CD3 protein worked out at 5.02 ng/mL.

B6: Hu192A7B9-10 (antibody, V domains shown)
VH: EVQLQESGPGLVKPSETLSLTCTVSGGSISSYNVHWVRQPPGKGLEWMGRMRYNGDTSYNSALKSRLTISRDTSKNQFSLKLSSVTAADTAVYYCTRGPRGGYYSALFDYWGQGTMVTVSS
VL: DIQMTQSPSSLSASVGDRVTITCKASQNINRYLNWYQQKPGKAPKLLISIANSLQTGVPSRFSGSGSGTDFTLTISSLQPEDFATYYCLQHNSWYTFGQGTKLEIK
notes: humanized mAb
For B6, in assay [1], the Kd amounted to 122 nM, the koff amounted to 0.0144 s⁻¹ and the kon was 118000 M⁻¹ s⁻¹. Besides, the “CD3-NFAT Activity by CD3 mAb” value in assay [2] is over 50 % SP34. This molecule also had an EC50 with human CD3 protein of 5.08 ng/mL.

B7: Hu192A7B9-17 (antibody, V domains shown)
VH: EVQLQESGPGLVKPSETLSLTCTVSGFSISSYNVHWVRQPPGKGLEWMGRMRYNGDTSYNSALKSRLTISRDTSKNQVSLKLSSVTAADTAVYYCTRGPRGGYYSALFDYWGQGTMVTVSS
VL: DIQMTQSPSSLSASVGDRVTITCKASQNINRYLNWYQQKPGKAPKLLISIANSLQTGIPSRFSGSGSGTDFTLTISSLQPEDFATYYCLQHNSWYTFGQGTKLEIK
notes: humanized mAb
In the case of B7, in assay [1], the Kd worked out at 64.8 nM, the koff was found to be 0.00532 s⁻¹ and the kon stood at 82200 M⁻¹ s⁻¹. Also, the “CD3-NFAT Activity by CD3 mAb” value in assay [2] is over 50 % SP34. Also, in the assay with human CD3 protein, a half-maximal effect (EC50) was put at 4.46 ng/mL.

B8: Hu192A7B9-9 (antibody, V domains shown)
VH: EVQLQESGPGLVKPSETLSLTCTVSGGSISSYNVHWVRQPPGKGLEWMGRMRYNGDTSYNSALKSRLTISRDTSKNQFSLKLSSVTAADTAVYYCARGPRGGYYSALFDYWGQGTMVTVSS
VL: DIQMTQSPSSLSASVGDRVTITCKASQNINRYLNWYQQKPGKAPKLLISIANSLQTGVPSRFSGSGSGTDFTLTISSLQPEDFATYYCLQHNSWYTFGQGTKLEIK
notes: humanized mAb
As for B8, in assay [1], the Kd turned out to be 92.7 nM, the koff worked out at 0.0204 s⁻¹ and the kon was 220000 M⁻¹ s⁻¹. The “CD3-NFAT Activity by CD3 mAb” value in assay [2] was over 50 % SP34. For the same molecule, in the assay with human CD3 protein, the response was half-maximal at 5.58 ng/mL (EC50).

B9: Hu192A7B9-15 (antibody, V domains shown)
VH: EVQLQESGPGLVKPSETLSLTCTVSGGSISSYNVHWVRQPPGKGLEWMGRMRYNGDTSYNSALKSRLTISRDTSKNQFSLKLSSVTAADTAVYYCARGPRGGYYSALFDYWGQGTMVTVSS
VL: DIQMTQSPSSLSASVGDRVTITCKASQNINRYLNWYQQKPGKAPKLLISIANSLQTGIPSRFSGSGSGTDFTLTISSLQPEDFATYYCLQHNSWYTFGQGTKLEIK
notes: humanized mAb
For B9, in assay [1], the Kd came out at 40.9 nM, the koff came to 0.00741 s⁻¹ and the kon was 181000 M⁻¹ s⁻¹. Further, the “CD3-NFAT Activity by CD3 mAb” value in assay [2] is over 50 % SP34. In addition, the EC50 with human CD3 protein was found to be 28.8 ng/mL.

B10: Hu192A7B9-22 (antibody, V domains shown)
VH: EVQLQESGPGLVKPSETLSLTCTVSGGSISSYNVHWVRQPPGKGLEWMGRMRYNGDTSYNSALKSRLTISRDTSKNQFSLKLSSVTAADTAVYYCTRGPRGGYYSALFDYWGQGTMVTVSS
VL: DIQMTQSPSSLSASVGDRVTITCKASQNINRYLNWYQQKPGKAPKVLISIANSLQTGIPSRFSGSGSGTDFTLTISSLQPEDFATYFCLQHNSWYTFGQGTKLEIK
notes: humanized mAb
Turning to B10, in assay [1], the Kd worked out at 55 nM, the koff came out at 0.00462 s⁻¹ and the kon turned out to be 83900 M⁻¹ s⁻¹. Also, the “CD3-NFAT Activity by CD3 mAb” value in assay [2] is over 50 % SP34. The EC50 with human CD3 protein was found to be 7.12 ng/mL.

B11: Hu192A7B9-13 (antibody, V domains shown)
VH: EVQLQESGPGLVKPSETLSLTCTVSGGSISSYNVHWIRQPPGKGLEWIGRMRYNGDTSYNSALKSRVTISVDTSKNQFSLKLSSVTAADTAVYYCARGPRGGYYSALFDYWGQGTMVTVSS
VL: DIQMTQSPSSLSASVGDRVTITCKASQNINRYLNWYQQKPGKAPKLLISIANSLQTGIPSRFSGSGSGTDFTLTISSLQPEDFATYYCLQHNSWYTFGQGTKLEIK
notes: humanized mAb
For the molecule B11, in assay [1], the Kd came out at 22 nM, the koff was determined as 0.00631 s⁻¹ and the kon was determined as 286000 M⁻¹ s⁻¹. Further, the “CD3-NFAT Activity by CD3 mAb” value in assay [2] is at most 50 % SP34. In the assay with human CD3 protein, the EC50 amounted to 14.5 ng/mL.

B12: Hu192A7B9-21 (antibody, V domains shown)
VH: EVQLQESGPGLVKPSETLSLTCTVSGGSISSYNVHWVRQPPGKGLEWMGRMRYNGDTSYNSALKSRLTISRDTSKNQFSLKLSSVTAADTAVYYCARGPRGGYYSALFDYWGQGTMVTVSS
VL: DIQMTQSPSSLSASVGDRVTITCKASQNINRYLNWYQQKPGKAPKVLISIANSLQTGIPSRFSGSGSGTDFTLTISSLQPEDFATYFCLQHNSWYTFGQGTKLEIK
notes: humanized mAb
With B12, in assay [1], the Kd was 55.1 nM, the off-rate constant (koff) is 0.00499 s⁻¹ and the kon was found to be 90600 M⁻¹ s⁻¹. Moreover, the “CD3-NFAT Activity by CD3 mAb” value in assay [2] is over 50 % SP34. In the assay with human CD3 protein, this molecule displayed a concentration giving a half-maximal response (EC50) of 5.46 ng/mL.

B13: Hu192A7B9-12 (antibody, V domains shown)
VH: EVQLQESGPGLVKPSETLSLTCTVSGFSLTSYNVHWVRQPPGKGLEWMGRMRYNGDTSYNSALKSRLTISRDTSKNQVSLKLSSVTAADTAVYYCTRGPRGGYYSALFDYWGQGTMVTVSS
VL: DIQMTQSPSSLSASVGDRVTITCKASQNINRYLNWYQQKPGKAPKLLISIANSLQTGVPSRFSGSGSGTDFTLTISSLQPEDFATYYCLQHNSWYTFGQGTKLEIK
notes: humanized mAb
As for B13, in assay [1], the Kd worked out at 58.1 nM, the koff was determined as 0.00317 s⁻¹ and the kon was 54600 M⁻¹ s⁻¹. Besides, the “CD3-NFAT Activity by CD3 mAb” value in assay [2] is over 50 % SP34. Moreover, in the assay with human CD3 protein, it took 9.74 ng/mL to reach a half-maximal effect (EC50).

B14: Hu192A7B9-19 (antibody, V domains shown)
VH: EVQLQESGPGLVKPSETLSLTCTVSGGSISSYNVHWIRQPPGKGLEWIGRMRYNGDTSYNSALKSRVTISVDTSKNQFSLKLSSVTAADTAVYYCARGPRGGYYSALFDYWGQGTMVTVSS
VL: DIQMTQSPSSLSASVGDRVTITCKASQNINRYLNWYQQKPGKAPKVLISIANSLQTGIPSRFSGSGSGTDFTLTISSLQPEDFATYFCLQHNSWYTFGQGTKLEIK
notes: humanized mAb
Turning to B14, in assay [1], the Kd was determined as 34.5 nM, the koff came to 0.00543 s⁻¹ and the kon is 157000 M⁻¹ s⁻¹. Also, the “CD3-NFAT Activity by CD3 mAb” value in assay [2] was over 50 % SP34. Besides, the EC50 with human CD3 protein is 4.98 ng/mL.

B15: Hu192A7B9-20 (antibody, V domains shown)
VH: EVQLQESGPGLVKPSETLSLTCTVSGGSISSYNVHWVRQPPGKGLEWIGRMRYNGDTSYNSALKSRVTISRDTSKNQFSLKLSSVTAADTAVYYCARGPRGGYYSALFDYWGQGTMVTVSS
VL: DIQMTQSPSSLSASVGDRVTITCKASQNINRYLNWYQQKPGKAPKVLISIANSLQTGIPSRFSGSGSGTDFTLTISSLQPEDFATYFCLQHNSWYTFGQGTKLEIK
notes: humanized mAb
B15: in assay [1], the Kd was found to be 60.3 nM, the koff stood at 0.00561 s⁻¹ and the kon was determined as 93100 M⁻¹ s⁻¹. In addition, in assay [2], the “CD3-NFAT Activity by CD3 mAb” value was over 50 % SP34. The same molecule had an EC50 with human CD3 protein of 5.15 ng/mL.
